Test results as given in patent publication US10684274 (GEORGE WASHINGTON UNIVERSITY A CONGRESSIONALLY CHARTERED …, dated 2020).

How the values were obtained:
[1] = target: endogenous calnexin (HEK293T and other human cells) (human) (UniProt P27824); test: co-immunoprecipitation from HEK293T cells transfected with HIV-1 molecular clones; IP of endogenous calnexin with anti-CNX antibody, western blot for Nef; reference lane
[2] = target: endogenous calnexin (HEK293T and other human cells) (human) (UniProt P27824); test: co-immunoprecipitation with endogenous calnexin, HEK293T cells (FIG. 3A)
[3] = target: endogenous calnexin (HEK293T and other human cells) (human) (UniProt P27824); test: co-immunoprecipitation with endogenous calnexin, HEK293T cells transfected with mutant HIV-1 NL4-3 clone, immunoblot for Nef
[4] = target: endogenous calnexin (HEK293T and other human cells) (human) (UniProt P27824); test: co-immunoprecipitation from HEK293T cells transfected with HIV-1 molecular clones; IP of endogenous calnexin with anti-CNX antibody, western blot for Nef; relative to the Nef wt lane; no Nef band is visible in this lane
myristoylated NefSF2 = target: T1, myristoylated NefSF2 (HIV-1, UniProt P03407 2-210, myristoylated (site not given)); test: SPR, Biacore T-200, CNX-CT amine-coupled on CM5 chip, Nef as analyte, 25 C
T1 construct: Analyte in SPR

[5] = target: T2, HA-tagged calnexin with truncation of the C-terminal cytoplasmic domain (CNXΔ504-586) (human, UniProt P27824 21-592); test: co-immunoprecipitation with anti-HA beads from HEK293T lysates, immunoblot for Nef, densitometry
T2 sequence: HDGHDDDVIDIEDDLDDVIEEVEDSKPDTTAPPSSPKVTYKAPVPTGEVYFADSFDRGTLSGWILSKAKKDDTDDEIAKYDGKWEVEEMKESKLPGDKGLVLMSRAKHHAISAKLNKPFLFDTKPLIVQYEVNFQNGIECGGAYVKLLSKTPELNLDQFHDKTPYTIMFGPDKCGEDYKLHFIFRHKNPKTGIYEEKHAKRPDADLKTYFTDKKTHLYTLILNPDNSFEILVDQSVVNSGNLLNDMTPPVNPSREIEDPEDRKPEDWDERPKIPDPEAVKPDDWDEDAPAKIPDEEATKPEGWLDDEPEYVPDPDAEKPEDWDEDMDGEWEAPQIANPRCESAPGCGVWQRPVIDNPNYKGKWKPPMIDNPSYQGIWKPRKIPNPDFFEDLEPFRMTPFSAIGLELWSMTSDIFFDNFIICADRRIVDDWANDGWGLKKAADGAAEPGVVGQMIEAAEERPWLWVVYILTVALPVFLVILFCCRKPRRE

[6] = target: T3, HA-tagged calnexin with deletion of the lumenal repeat segment (CNXΔ276-409) (human, UniProt P27824 21-592); test: as above
T3 construct: Made by restriction digest and re-ligation, so junction residues are not known
T3 sequence: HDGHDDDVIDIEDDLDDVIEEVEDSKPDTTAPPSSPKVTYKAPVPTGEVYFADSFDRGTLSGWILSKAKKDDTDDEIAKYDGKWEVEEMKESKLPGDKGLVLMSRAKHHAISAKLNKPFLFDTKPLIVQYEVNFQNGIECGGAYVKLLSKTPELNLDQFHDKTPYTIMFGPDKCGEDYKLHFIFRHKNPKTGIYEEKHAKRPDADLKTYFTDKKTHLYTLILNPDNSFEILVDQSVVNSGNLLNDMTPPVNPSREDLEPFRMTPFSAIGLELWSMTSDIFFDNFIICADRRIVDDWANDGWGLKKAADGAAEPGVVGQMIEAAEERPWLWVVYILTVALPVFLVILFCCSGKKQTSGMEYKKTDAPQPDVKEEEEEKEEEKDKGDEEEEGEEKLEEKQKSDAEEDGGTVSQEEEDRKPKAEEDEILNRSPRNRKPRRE

[7] = target: T4, endogenous calnexin (HEK293T and other human cells) (human, UniProt P27824 21-592); test: co-immunoprecipitation with endogenous calnexin, HEK293T cells, densitometry
T4 construct: Endogenous cellular protein, immunoprecipitated with a monoclonal anti-calnexin antibody or co-precipitated with HA-Nef; also called CNX
T4 sequence: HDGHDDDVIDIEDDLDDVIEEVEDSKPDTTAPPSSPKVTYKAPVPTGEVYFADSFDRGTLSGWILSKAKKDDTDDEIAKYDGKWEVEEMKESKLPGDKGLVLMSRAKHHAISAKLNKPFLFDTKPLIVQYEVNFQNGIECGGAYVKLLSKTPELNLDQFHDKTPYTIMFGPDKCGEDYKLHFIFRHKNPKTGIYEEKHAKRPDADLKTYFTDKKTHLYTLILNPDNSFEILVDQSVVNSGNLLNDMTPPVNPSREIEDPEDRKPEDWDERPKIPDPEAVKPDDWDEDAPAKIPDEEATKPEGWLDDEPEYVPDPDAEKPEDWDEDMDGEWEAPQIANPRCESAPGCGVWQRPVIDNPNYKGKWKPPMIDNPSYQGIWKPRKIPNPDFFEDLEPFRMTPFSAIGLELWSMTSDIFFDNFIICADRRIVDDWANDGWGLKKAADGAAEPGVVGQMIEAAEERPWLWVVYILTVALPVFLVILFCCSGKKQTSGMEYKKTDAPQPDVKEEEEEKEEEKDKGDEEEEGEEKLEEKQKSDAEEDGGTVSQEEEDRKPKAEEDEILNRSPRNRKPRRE

[8] = target: T4, endogenous calnexin (HEK293T and other …); test: co-immunoprecipitation from HEK293T cells transfected with pcDNA Nef plasmids; IP of endogenous calnexin with anti-CNX antibody, western blot for Nef; relative to the Nef wt lane
[9] = target: T5, ABCA1-FLAG (ATP-binding cassette A1 with FLAG tag) (UniProt O95477 1-2261); test: co-immunoprecipitation with ABCA1-FLAG (anti-FLAG beads), HEK293T cells, densitometry
T5 construct: whole, on cells; Immunoprecipitated with anti-FLAG beads from lysates; not shown: FLAG tag

[10] = target: T4, endogenous calnexin (HEK293T and other …); test: co-immunoprecipitation with endogenous calnexin (monoclonal anti-calnexin), HEK293T cells, immunoblot for Nef

T5 sequence (O95477 whole entry): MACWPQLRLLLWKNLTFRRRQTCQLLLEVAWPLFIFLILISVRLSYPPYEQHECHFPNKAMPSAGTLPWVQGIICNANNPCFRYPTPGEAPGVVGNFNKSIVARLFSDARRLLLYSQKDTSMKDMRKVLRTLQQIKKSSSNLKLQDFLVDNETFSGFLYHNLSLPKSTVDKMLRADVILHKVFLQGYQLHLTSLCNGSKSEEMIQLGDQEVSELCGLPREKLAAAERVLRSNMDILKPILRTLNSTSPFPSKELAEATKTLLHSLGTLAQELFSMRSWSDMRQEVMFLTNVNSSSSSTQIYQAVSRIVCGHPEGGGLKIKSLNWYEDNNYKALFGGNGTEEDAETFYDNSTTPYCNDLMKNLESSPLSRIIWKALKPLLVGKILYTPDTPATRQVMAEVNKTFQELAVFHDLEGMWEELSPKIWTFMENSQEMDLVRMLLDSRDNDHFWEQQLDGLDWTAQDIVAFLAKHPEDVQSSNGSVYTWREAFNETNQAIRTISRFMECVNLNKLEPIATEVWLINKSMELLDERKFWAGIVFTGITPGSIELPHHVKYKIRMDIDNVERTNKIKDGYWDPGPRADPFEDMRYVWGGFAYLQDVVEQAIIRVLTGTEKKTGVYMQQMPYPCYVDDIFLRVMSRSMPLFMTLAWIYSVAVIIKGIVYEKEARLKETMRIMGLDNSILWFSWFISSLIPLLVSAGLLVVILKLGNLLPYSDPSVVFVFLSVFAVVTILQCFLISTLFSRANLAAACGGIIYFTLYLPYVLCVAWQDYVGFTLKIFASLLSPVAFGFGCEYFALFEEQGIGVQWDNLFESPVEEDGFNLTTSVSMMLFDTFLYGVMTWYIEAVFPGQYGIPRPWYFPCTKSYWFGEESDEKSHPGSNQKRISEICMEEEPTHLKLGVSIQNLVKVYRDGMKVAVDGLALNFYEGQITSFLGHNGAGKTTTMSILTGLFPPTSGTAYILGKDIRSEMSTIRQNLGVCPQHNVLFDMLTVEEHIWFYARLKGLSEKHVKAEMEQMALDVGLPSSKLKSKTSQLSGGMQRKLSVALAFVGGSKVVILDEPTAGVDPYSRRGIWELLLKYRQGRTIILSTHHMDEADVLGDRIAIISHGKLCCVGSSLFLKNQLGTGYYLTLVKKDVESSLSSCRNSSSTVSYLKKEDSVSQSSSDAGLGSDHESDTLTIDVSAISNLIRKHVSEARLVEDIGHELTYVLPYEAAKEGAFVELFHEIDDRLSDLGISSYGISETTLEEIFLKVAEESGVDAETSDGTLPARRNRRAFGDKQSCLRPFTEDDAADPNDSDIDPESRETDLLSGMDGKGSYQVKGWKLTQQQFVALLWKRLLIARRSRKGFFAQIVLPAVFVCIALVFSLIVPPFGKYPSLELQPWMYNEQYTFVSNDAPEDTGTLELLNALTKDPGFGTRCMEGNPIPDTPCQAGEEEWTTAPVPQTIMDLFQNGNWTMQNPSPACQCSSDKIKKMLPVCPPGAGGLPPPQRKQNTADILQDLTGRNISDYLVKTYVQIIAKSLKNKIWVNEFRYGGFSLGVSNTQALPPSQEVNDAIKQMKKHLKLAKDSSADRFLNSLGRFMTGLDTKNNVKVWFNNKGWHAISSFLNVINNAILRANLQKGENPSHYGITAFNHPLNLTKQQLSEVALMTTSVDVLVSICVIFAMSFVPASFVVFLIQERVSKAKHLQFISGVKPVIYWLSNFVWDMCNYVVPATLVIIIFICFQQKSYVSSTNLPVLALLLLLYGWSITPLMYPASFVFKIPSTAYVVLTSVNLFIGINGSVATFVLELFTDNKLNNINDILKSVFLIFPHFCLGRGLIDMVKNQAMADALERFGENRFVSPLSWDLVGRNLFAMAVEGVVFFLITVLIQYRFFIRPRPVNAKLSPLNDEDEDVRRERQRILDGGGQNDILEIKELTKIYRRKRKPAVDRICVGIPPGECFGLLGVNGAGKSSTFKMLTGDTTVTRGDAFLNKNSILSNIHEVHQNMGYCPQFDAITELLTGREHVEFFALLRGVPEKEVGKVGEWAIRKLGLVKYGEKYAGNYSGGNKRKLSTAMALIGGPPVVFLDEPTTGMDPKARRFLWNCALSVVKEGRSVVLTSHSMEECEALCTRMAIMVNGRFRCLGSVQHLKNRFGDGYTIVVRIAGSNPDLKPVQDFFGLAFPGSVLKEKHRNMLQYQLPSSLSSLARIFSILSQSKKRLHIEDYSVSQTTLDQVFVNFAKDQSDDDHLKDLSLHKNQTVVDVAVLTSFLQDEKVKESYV

HIV-1 NL4-3 Nef, wild type (expressed from HIV-1 NL4-3 molecular clone)
relative amount of co-precipitated Nef (gel densitometry) [1]: 1

HIV-1 NL4-3 Nef K4,7A mutant (expressed from mutant HIV-1 NL4-3 clone)
loss of interaction relative to Nef WT [2]: > 95% | reduction of interaction relative to Nef WT [3]: 95% | relative amount of co-precipitated Nef (gel densitometry) [4]: 0.05

B1: recombinant calnexin cytoplasmic tail (CNX-CT), N-terminal His-tag and SUMO domain, purified from E. coli (other)
chain: HHHHHHHHCSGKKQTSGMEYKKTDAPQPDVKEEEEEKEEEKDKGDEEEEGEEKLEEKQKSDAEEDGGTVSQEEEDRKPKAEEDEILNRSPRNRKPRRE
notes: also called cytoplasmic tail of CNX; C-terminal (cytoplasmic) domain of CNX
Kd (myristoylated NefSF2): 9.4 nM | koff (myristoylated NefSF2): 0.00857 s⁻¹ | kon (myristoylated NefSF2): 908000 M⁻¹ s⁻¹

B2: HIV-1 Nef, BRU isolate, wild type (NefBRU) (other)
chain: GGKWSKSSVVGWPTVRERMRRAEPAADGVGAASRDLEKHGAITSSNTAATNAACAWLEAQEEEEVGFPVTPQVPLRPMTYKAAVDLSHFLKEKGGLEGLIHSQRRQDILDLWIYHTQGYFPDWQNYTPGPGVRYPLTFGWCYKLVPVEPDKVEEANKGENTSLLHPVSLHGMDDPEREVLEWRFDSRLAFHHVARELHPEYFKNC
notes: whole, on cells; also called Nef WT; WT Nef
reduction of binding relative to WT calnexin [5]: 70% | reduction of binding relative to WT calnexin [6]: 40%

B3: HIV-1 Nef BRU K4A mutant (NefK4A) (other)
chain: GGAWSKSSVVGWPTVRERMRRAEPAADGVGAASRDLEKHGAITSSNTAATNAACAWLEAQEEEEVGFPVTPQVPLRPMTYKAAVDLSHFLKEKGGLEGLIHSQRRQDILDLWIYHTQGYFPDWQNYTPGPGVRYPLTFGWCYKLVPVEPDKVEEANKGENTSLLHPVSLHGMDDPEREVLEWRFDSRLAFHHVARELHPEYFKNC
notes: whole, on cells; Expressed in HEK293T cells, co-immunoprecipitated from lysates
reduction of interaction relative to WT Nef [7]: 50% | relative amount of co-precipitated Nef (gel densitometry) [8]: 0.5

B4: HIV-1 Nef BRU K4,7A double mutant (NefK4,7A, pcDNA plasmid) (other)
chain: GGAWSASSVVGWPTVRERMRRAEPAADGVGAASRDLEKHGAITSSNTAATNAACAWLEAQEEEEVGFPVTPQVPLRPMTYKAAVDLSHFLKEKGGLEGLIHSQRRQDILDLWIYHTQGYFPDWQNYTPGPGVRYPLTFGWCYKLVPVEPDKVEEANKGENTSLLHPVSLHGMDDPEREVLEWRFDSRLAFHHVARELHPEYFKNC
notes: as for B3
reduction of interaction relative to wild-type Nef [9]: ~30% | binding result [10]: no binding | relative amount of co-precipitated Nef (gel densitometry) [8]: 0.01

B5: HIV-1 Nef BRU K7A mutant (NefK7A) (other)
chain: GGKWSASSVVGWPTVRERMRRAEPAADGVGAASRDLEKHGAITSSNTAATNAACAWLEAQEEEEVGFPVTPQVPLRPMTYKAAVDLSHFLKEKGGLEGLIHSQRRQDILDLWIYHTQGYFPDWQNYTPGPGVRYPLTFGWCYKLVPVEPDKVEEANKGENTSLLHPVSLHGMDDPEREVLEWRFDSRLAFHHVARELHPEYFKNC
notes: as for B3
reduction of interaction relative to WT Nef [7]: 90% | relative amount of co-precipitated Nef (gel densitometry) [8]: 0.1
